Values quoted from earlier work as cited in article PMC7421905.

Biological target: Laminin 411 (Homo sapiens) (UniProt Q16363)
UniProt Q16363, sequence (Q16363 25-1823, chain 1 of 3): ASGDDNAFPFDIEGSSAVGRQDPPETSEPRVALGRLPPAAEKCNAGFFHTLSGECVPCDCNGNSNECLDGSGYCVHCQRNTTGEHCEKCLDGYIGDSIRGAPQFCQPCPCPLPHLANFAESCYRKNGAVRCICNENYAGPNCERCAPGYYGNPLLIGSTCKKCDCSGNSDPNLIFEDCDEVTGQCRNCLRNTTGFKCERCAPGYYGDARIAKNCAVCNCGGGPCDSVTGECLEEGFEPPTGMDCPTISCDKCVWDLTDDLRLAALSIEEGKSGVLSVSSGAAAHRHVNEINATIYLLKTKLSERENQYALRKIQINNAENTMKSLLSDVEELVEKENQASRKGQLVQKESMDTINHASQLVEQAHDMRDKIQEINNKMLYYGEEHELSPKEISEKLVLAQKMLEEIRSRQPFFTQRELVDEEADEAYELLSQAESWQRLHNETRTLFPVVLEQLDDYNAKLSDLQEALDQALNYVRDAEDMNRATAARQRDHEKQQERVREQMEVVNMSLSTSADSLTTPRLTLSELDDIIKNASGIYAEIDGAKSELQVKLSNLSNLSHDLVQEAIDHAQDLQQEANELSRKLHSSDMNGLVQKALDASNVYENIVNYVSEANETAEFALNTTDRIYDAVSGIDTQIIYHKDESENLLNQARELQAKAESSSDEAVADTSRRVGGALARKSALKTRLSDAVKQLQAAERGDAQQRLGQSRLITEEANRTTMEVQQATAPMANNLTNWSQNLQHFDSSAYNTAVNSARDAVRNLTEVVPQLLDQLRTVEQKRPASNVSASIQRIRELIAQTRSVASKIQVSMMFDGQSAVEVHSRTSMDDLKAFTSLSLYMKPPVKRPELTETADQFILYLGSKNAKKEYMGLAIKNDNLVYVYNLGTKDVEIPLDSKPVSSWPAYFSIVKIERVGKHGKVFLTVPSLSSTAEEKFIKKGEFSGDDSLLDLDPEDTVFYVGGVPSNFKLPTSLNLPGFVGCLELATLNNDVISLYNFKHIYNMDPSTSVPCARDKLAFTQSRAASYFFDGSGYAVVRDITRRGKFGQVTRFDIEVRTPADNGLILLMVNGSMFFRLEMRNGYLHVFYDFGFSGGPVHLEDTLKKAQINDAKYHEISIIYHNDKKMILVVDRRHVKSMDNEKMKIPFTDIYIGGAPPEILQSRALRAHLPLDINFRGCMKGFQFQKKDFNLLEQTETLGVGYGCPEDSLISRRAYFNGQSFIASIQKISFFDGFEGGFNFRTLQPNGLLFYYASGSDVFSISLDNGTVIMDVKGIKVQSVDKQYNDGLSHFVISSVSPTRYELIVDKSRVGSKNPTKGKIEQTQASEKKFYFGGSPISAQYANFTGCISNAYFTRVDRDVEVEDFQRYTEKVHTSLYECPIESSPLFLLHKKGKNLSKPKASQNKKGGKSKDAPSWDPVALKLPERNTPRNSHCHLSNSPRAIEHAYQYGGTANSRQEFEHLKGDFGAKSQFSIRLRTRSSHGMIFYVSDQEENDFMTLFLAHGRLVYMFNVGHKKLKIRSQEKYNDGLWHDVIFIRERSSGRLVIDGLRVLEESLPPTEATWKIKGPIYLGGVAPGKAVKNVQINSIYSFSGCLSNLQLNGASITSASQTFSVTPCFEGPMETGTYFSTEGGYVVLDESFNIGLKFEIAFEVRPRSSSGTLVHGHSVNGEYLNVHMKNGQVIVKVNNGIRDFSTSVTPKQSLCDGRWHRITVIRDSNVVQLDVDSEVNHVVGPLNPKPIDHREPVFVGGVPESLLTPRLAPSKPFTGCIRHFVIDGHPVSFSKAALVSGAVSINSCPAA
UniProt Q16363, sequence (P07942 22-1786, chain 2 of 3, further chain): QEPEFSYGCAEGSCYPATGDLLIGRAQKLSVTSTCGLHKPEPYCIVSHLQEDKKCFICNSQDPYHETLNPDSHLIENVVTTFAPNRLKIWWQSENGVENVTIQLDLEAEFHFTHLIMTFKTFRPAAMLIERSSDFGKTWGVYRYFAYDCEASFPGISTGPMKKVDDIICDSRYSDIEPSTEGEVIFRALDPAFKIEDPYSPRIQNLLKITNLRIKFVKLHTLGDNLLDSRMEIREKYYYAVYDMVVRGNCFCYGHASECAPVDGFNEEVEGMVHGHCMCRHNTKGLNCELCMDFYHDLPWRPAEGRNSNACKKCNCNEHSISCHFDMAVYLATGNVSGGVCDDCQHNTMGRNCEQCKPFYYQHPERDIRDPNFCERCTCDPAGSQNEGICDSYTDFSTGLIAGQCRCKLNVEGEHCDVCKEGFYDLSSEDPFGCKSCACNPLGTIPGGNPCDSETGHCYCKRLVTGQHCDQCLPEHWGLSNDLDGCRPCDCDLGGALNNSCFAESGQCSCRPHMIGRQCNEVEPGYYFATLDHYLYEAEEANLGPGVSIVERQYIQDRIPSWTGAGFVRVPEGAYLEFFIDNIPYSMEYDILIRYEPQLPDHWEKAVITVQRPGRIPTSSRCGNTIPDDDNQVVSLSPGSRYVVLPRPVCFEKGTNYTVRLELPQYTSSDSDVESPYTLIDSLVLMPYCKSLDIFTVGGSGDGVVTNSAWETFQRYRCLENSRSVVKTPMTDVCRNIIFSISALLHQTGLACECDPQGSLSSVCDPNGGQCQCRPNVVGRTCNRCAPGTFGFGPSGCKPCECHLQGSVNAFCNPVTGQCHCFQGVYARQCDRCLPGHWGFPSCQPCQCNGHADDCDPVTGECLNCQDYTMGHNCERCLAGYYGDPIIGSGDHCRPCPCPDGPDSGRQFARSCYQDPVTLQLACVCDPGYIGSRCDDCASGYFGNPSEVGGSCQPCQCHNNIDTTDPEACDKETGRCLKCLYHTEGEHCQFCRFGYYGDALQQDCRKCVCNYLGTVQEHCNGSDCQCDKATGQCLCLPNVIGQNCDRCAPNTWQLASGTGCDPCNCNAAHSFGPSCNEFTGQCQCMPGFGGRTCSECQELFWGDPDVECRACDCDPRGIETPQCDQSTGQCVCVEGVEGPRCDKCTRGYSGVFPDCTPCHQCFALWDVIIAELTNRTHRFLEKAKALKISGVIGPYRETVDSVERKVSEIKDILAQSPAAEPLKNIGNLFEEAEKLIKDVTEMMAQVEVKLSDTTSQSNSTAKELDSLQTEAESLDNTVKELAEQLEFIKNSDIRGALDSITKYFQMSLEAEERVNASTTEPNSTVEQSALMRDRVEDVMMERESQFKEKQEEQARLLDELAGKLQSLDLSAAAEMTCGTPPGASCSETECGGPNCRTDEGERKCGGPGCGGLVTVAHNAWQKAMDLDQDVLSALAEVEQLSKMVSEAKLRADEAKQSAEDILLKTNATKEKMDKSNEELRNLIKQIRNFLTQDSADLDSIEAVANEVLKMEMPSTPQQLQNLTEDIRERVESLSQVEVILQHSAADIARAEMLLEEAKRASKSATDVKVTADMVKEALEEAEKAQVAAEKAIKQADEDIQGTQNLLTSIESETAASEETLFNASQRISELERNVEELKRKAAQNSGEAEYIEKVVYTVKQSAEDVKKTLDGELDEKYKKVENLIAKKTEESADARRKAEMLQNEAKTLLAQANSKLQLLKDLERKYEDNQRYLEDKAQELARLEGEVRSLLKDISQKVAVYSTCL
UniProt Q16363, sequence (P11047 34-1609, chain 3 of 3, further chain): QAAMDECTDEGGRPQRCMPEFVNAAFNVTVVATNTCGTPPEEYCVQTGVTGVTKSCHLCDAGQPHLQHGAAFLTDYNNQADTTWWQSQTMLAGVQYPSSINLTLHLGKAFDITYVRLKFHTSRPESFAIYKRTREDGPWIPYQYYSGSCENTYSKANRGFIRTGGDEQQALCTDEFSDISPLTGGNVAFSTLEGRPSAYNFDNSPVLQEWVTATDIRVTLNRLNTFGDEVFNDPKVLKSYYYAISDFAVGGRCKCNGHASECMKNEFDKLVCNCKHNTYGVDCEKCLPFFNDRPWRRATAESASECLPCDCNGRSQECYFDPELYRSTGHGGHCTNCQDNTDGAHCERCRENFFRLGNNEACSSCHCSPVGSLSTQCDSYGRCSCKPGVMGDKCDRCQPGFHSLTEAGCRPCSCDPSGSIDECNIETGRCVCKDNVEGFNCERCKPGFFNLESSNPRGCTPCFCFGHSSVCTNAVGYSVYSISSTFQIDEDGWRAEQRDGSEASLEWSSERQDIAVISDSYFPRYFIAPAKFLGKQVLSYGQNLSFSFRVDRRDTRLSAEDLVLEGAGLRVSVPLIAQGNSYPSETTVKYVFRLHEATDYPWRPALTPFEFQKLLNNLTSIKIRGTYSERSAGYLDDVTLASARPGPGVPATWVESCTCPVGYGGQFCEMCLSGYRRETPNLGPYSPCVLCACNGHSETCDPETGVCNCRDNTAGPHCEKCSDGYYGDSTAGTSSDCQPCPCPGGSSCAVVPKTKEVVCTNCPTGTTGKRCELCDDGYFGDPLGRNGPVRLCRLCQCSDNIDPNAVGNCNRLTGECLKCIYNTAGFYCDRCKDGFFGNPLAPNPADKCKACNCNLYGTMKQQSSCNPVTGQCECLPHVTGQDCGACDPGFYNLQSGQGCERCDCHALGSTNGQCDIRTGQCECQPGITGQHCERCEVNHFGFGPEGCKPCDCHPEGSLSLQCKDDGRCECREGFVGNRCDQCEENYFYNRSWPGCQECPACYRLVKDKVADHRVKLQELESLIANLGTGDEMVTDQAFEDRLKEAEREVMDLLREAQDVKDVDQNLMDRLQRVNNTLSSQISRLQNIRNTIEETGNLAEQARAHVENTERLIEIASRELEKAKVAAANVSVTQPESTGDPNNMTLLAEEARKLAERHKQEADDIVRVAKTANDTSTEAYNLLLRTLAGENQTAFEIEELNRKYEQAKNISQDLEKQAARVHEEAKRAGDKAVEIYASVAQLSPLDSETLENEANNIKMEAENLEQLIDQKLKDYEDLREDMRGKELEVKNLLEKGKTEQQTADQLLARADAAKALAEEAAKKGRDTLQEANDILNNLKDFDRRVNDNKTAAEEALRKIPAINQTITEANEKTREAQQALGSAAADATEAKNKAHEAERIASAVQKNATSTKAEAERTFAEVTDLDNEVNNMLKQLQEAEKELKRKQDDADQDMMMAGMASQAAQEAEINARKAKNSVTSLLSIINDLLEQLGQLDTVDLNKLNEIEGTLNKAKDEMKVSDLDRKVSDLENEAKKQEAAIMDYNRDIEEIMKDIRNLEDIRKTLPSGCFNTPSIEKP

Q: For CD146-Fc (from UniProt P43121), which Kd is on record?
A: Its Kd is 0.027 µM.
